Measurements from patent US20230183713A1, “SITE-SPECIFIC RECOMBINASES FOR EFFICIENT AND SPECIFIC GENOME EDITING” (TECHNISCHE UNIVERSITÄt DRESDEN, published 2023).

How the values were obtained:
[1] = target: T1, Cre recombinase monomer with Y324V mutation
T1 chain: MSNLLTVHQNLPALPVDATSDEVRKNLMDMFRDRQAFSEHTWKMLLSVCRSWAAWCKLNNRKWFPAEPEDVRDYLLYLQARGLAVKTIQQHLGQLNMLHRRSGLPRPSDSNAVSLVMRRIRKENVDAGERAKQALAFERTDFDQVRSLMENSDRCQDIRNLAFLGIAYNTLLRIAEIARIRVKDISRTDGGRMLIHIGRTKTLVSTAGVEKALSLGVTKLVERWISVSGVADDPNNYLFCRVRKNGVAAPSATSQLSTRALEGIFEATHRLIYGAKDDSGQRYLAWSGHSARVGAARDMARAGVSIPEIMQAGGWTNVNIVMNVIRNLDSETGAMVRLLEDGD

[2] = target: T2, Cre recombinase monomer with W315Q mutation
T2 chain: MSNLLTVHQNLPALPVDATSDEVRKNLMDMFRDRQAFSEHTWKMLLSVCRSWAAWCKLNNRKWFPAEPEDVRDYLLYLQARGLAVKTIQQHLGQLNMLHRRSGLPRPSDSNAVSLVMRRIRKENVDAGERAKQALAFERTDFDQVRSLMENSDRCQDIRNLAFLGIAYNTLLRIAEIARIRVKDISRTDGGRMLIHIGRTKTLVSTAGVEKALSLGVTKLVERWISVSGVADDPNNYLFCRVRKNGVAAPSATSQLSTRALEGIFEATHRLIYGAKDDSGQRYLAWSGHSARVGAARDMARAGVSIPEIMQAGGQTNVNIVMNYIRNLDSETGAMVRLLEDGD

[3] = target: T3, Cre recombinase monomer with W315C mutation
T3 chain: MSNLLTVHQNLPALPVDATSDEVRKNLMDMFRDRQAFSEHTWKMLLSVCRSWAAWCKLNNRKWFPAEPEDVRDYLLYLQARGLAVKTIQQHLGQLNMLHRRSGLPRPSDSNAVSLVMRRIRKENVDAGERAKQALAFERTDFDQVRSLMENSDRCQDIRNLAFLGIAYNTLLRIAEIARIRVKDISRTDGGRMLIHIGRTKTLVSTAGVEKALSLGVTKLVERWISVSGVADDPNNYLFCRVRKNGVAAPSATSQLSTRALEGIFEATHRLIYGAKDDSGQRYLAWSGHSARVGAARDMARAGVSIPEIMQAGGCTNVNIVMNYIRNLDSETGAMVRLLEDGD

[4] = target: T4, Cre recombinase monomer with Y324W mutation
T4 chain: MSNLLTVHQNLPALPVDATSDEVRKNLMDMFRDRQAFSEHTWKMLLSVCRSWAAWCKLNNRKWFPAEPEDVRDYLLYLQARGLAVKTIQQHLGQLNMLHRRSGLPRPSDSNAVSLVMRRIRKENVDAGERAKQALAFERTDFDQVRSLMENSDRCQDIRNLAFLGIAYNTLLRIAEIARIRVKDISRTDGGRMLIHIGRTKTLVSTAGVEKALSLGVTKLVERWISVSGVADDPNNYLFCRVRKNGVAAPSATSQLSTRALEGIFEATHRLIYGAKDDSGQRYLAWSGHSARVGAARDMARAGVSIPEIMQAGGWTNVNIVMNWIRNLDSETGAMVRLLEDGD

[5] = target: T5, Cre recombinase monomer with Y324S mutation
T5 chain: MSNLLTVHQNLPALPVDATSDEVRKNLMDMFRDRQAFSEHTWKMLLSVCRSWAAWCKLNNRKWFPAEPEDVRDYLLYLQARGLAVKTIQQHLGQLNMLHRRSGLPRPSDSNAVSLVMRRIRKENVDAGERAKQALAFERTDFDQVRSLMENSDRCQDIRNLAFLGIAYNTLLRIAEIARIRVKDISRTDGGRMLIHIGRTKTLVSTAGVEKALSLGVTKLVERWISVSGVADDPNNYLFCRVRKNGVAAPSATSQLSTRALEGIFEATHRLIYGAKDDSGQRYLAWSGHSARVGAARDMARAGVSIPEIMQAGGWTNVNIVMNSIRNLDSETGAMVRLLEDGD

[6] = target: T6, Cre recombinase monomer with Y324Q mutation
T6 chain: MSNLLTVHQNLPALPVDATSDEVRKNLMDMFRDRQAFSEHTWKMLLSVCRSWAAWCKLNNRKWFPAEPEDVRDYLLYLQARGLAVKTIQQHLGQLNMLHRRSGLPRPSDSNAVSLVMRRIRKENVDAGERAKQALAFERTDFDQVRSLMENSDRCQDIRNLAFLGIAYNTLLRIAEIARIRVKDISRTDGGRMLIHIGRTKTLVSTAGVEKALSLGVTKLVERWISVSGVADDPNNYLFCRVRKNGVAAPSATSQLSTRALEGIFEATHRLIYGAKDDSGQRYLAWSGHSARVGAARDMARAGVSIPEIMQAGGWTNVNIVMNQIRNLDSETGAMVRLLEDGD

[7] = target: T7, Cre recombinase monomer with Y324F mutation
T7 chain: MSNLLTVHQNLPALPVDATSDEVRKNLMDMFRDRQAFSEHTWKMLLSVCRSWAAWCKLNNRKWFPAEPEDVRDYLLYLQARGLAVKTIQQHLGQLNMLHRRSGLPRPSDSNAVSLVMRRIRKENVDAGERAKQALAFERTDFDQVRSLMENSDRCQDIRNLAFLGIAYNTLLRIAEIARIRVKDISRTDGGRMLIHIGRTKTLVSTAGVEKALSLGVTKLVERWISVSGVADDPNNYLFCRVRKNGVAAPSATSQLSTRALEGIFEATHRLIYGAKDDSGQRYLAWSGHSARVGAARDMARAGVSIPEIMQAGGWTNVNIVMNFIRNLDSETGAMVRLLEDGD

[8] = target: T8, Cre recombinase monomer with W315V mutation
T8 chain: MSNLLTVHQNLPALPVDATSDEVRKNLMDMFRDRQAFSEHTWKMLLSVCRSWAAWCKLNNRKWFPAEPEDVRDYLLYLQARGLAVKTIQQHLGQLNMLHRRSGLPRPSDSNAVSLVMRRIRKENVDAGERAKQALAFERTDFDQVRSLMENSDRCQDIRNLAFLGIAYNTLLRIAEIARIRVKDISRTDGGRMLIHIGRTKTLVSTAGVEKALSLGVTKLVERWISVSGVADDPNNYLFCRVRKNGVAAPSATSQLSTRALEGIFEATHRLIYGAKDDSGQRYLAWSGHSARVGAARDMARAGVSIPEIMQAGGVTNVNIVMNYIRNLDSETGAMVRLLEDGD

B1: Cre recombinase monomer with Q311R mutation (protein)
chain: MSNLLTVHQNLPALPVDATSDEVRKNLMDMFRDRQAFSEHTWKMLLSVCRSWAAWCKLNNRKWFPAEPEDVRDYLLYLQARGLAVKTIQQHLGQLNMLHRRSGLPRPSDSNAVSLVMRRIRKENVDAGERAKQALAFERTDFDQVRSLMENSDRCQDIRNLAFLGIAYNTLLRIAEIARIRVKDISRTDGGRMLIHIGRTKTLVSTAGVEKALSLGVTKLVERWISVSGVADDPNNYLFCRVRKNGVAAPSATSQLSTRALEGIFEATHRLIYGAKDDSGQRYLAWSGHSARVGAARDMARAGVSIPEIMRAGGWTNVNIVMNYIRNLDSETGAMVRLLEDGD
With B1 as the protein, how does the “Median dimer activity (recombination on loxP)” value (shortened to “Median dimer activity”) [1] read?
Its value is 90%.

And the “Median dimer activity” value [2]?
The value was 49%.

And the “Median dimer activity” value [3]?
The value was 84%.

And the “Median dimer activity” value [4]?
Its value is 95%.

What about the “Median dimer activity” value [5] of the same protein?
The value was 81%.

And the “Median dimer activity” value [6]?
The value was 72%.

And the “Median dimer activity” value [7]?
The value was 95%.

What about the “Median dimer activity” value [8] of the same protein?
Its value is 91%.
